Experimental data as given in the nanobody polyreactivity screen of Harvey et al. (2022).

Experiment: yeast display, Sf9 membrane polyspecificity reagent, FACS + sequencing; frameworks hold sequencing errors
Procedure, shortened: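 A synthetic nanobody library was expressed on Saccharomyces cerevisiae BJ5465 by galactose induction for 36–48 hours. The library was stained for 1 hour at 4 °C with 10% biotinylated, detergent-solubilized Sf9 membrane reagent and enriched with streptavidin microbeads before FACS. Low and high (top ~1%) gates were set on anti-HA fluorescence for expression and streptavidin fluorescence for reagent binding, and each polyreactivity label reflects the gate of origin.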

| Sequence | polyreactivity (PSR sort gate) |
| --- | --- |
| QVQLVESGGGLVQAGGSLRLSCAASGRISRGYAMGWYRQAPGKERELVAAIDSDGDTNYADSVKGRFTISRDNAKNTVYLQMNSLKPEDTAVYYCNKDGAYKTAYKRWTLYDYWGQGTQVTVSS | low polyreactivity |
| QVQLVESGGGLVQAGGSLRLSCAASGRISSLYAMGWYRQAPGKERELVAAISGTGGSAYYADSVKGRFTISRDNAKNTVYLQLNSLKPEDTAVYYCNAVRRWRTSQFDYWGQGTQVTVSS | low polyreactivity |
| QVQLVESGGGLVQAGGSLRLSCAASGRISTRYTMGWYRQAPRKERELVAAISGNAGRTYYADSVKGRFTISRDNAKNTVYLEMNSLKPADTAVYYCARESGYRAYEIQFYYWGQGTQVTVSS | high polyreactivity |
| QVQLVESGGGLVQAGGSLRLSCAASGRISVFNAMGWYRQAPGKERELVAAITSGGSTNYADSVKGRFTISRDNAKNTVYLQMNSLKPEDTAVYYSNADVYHSHEPHYDYWGQGTQVTVSS | low polyreactivity |
| QVQLVESGGGLVQAGGSLRLSCAASGRISVRIYAMGWYRQAPGKERELVAIISRSGGSTYYADSVKGRFTISRDNAKNTVYLQMNSLKPEDTEVYYCNARWSFSYTVWVDSYWCLDDYWGQGTQVTVSS | high polyreactivity |
| QVQLVESGGGLVQAGGSLRLSCAASGRISYANAMGWYRQAPGKERELVASITYSAGSTYADSVKGRFTISRDNAKYTVYLQMNSLKPEDSAVYYCNAYHVIYARESDYWGQCTQVTVSS | low polyreactivity |
| QVQLVESGGGLVQAGGSLRLSCAASGRISYLYTMGWYRQAPGKERELVAAIRWRDGSTYYADSVKGRFTISRDNAKNTVYLQMNSLTPEDTAVYYCAATPVGFYWYDYWGQGTQVTVSS | low polyreactivity |
| QVQLVESGGGLVQAGGSLRLSCAASGRISYNNAMGWYRQAPGKERELVAAITKNGGRTYYADSVKGRFTISRDNAKNTVYLQMNSLKPEDTAVYYCAVRSYYYGYDYWGQGTQVTVSS | high polyreactivity |
| QVQLVESGGGLVQAGGSLRLSCAASGRISYSNAMGWYRQAPGKERELVAAITSSGGSTYYADSVKGRFTISRDNAKNTVYLQMNSLKPEDTAVYYCAAVAYALGFASKEDYWGQGTQVTVSS | high polyreactivity |
| QVQLVESGGGLVQAGGSLRLSCAASGRIVANAMGWYRQAPGKERELVAAISWSGGRTFYADSVKGRFTISRDNAKNTVYLQMNSLKPEDSAVYYCNARGPVYARYDYCGQGTQVTVSS | low polyreactivity |
| QVQLVESGGGLVQAGGSLRLSCAASGRIVGYYAMGWYRQAPGKERELVATITFGGGSTYYADTVKGRFTISRDIAKNTVYLQMNSLKPEDTAVYYCAAEIYPLGSLRLGPGEYDHWGQGTQVTVSS | low polyreactivity |
| QVQLVESGGGLVQAGGSLRLSCAASGRIVRSYTMGWYRLEPGKERELVSDITSGTSTSYADSVKGRFTISRDNAKNTVYLQINSLKPEDTAVYYCNADVSNYFWNWPYQGMDYWGQGTQVTVSS | low polyreactivity |
| QVQLVESGGGLVQAGGSLRLSCAASGRIVYIYAMGWYRQAPGKERELVAAISSGGTTNYADSVKGRFTISRDNAKNTVYLQMNSLKPEDTAVYYCAAYWRSRNRFYWGQGTQVTVSS | high polyreactivity |
| QVQLVESGGGLVQAGGSLRLSCAASGRIYAMGWYRQAPGKERELVAAISRGGSTYYADSVKGRFTISRDNAKNTVYLQMNSLKPEDTAVYYCARRYASTGYDYWGQGTQVTVSS | high polyreactivity |
| QVQLVESGGGLVQAGGSLRLSCAASGRIYGPNAMGWYRQAPGKERELVAAISTSGGSTYYADSVKGRFTISRDNAKNTVYLQMNSLKPEDTAVYYCNVVHRGSWYYFWGQGTQVTVSS | high polyreactivity |
| QVQLVESGGGLVQAGGSLRLSCAASGRIYLKYTMGWYRQAPGKEREMVAAISRGGSTYYADSVKGRFTISRDNAKNTVYLQMNSLKPEDTAVYYCAATSYRRTGYNYWGQGTQVTVSS | high polyreactivity |
| QVQLVESGGGLVQAGGSLRLSCAASGRIYRYAIGWYRQAPGKERELVASISYSGGSTYYADSVNGRFTISRDNAKNTVYLQMNSLKPEDTAVYYCAARTRHVHYGDWGQGTQVTVSS | high polyreactivity |
| QVQLVESGGGLVQAGGSLRLSCAASGRIYSRYAMGWYRQAPGKERELVAAISASGGSTYYADSVKGRFTISRDNAKNTVYLQMNSLKPEDTAVYYCNAYQTSTPLFPGYGYWGQGTQVTVSS | low polyreactivity |
| QVQLVESGGGLVQAGGSLRLSCAASGRIYSYYARGWYRPAPGKERELVAAISRTGGTTYYADSVKGRFTISRDNAKNTVYLQMNSLKPEDTAVYYCAASGGYRPHRYQIGDYDYWGQGTQVTVSS | high polyreactivity |
| QVQLVESGGGLVQAGGSLRLSCAASGRIYVTNAMGWYRQAPGKERELVASISSGGRTHYADSVKGRFTISRDNAKNTVYLQMNSLKPEDTAVYYCAKPPLYYYPDLRGEEFYYWGQGTQVTVSS | low polyreactivity |
| QVQLVESGGGLVQAGGSLRLSCAASGRIYYPYAMGWYRQAPGKERELVASINYRGGSTYYADSVKGRFTISRDNAKNTVYLQMNSLKPEDTAVYYCAARFYWKYWRYDYWGQGTQVTVSS | high polyreactivity |
| QVQLVESGGGLVQAGGSLRLSCAASGRLCGIYTMGWYRQAPGKERELVAAISKRGSSTSYADSVKGRFTISRDNAKNTVYLQMNSQKPEDTAVYYCAARYGYSYRYSGFDYWGQGTQVTVSS | high polyreactivity |

| Sequence | polyreactivity (PSR sort gate) |
| --- | --- |
| QVQLVESGGGLVQAGGSLRLSCAASGRLFHPYAMGWYRQAPGKERELVARITTSGGSTSYADSVKGRFTISRDNAKNTVYLQMNSLKPEDTAVYYSAADRARYYSEYDYWGQGTQVTVSS | low polyreactivity |
| QVQLVESGGGLVQAGGSLRLSCAASGRLFKSYAMGWYRQAPGKERELVAAIRSGGSTYYADSVKGRFTISRDNAKNTVYLQMISLKPEDTAVYYCNRVTRTWTVTYHYWGQGTQVTVSS | high polyreactivity |
| QVQLVESGGGLVQAGGSLRLSCAASGRLFYLNAMGWYRQAPGKERDLVAAISGSTGSTYYADSVKGRITISRDNAMNPVYLHMTSLKPVDTAVYYSNAGGVYVEFNYWGQGTQVTVSS | low polyreactivity |
| QVQLVESGGGLVQAGGSLRLSCAASGRMFTHNVMGWYRQAPGKERELVAAISASGGSTYYADSVKGRFTISRDNAKNTVYLQMNSLKPEDTAVYYCNAGDYRTFYRRFDYWGQGTQVTVSS | low polyreactivity |
| QVQLVESGGGLVQAGGSLRLSCAASGRMIKYNTMGWYRQAPGKERELVAAISLSSGSGGGTRYADSVKGRFKISRDNAKNTVYLQMNSLKPEDTAVYYCAARHRYTNEYDYWGQGTQVTVSS | low polyreactivity |
| QVQLVESGGGLVQAGGSLRLSCAASGRNFDGYAMGWYRQAPGKERQLVAAISGGGNTKYADSVKGRFTISRDNAKNTVYLKMISLKPEDTAVYYCAARGYYYGYRFDSWGQGTQVTVSS | high polyreactivity |
| QVQLVESGGGLVQAGGSLRLSCAASGRNFGAYAMGWYRPAPGKERELVAAITTAGSTHYADSVKGRFTISRDNAKNTVYLQMKSLKPQDTAVYYCAADGIARSYVLFDAYDFLYDYWGQGTQVTVSS | low polyreactivity |
| QVQLVESGGGLVQAGGSLRLSCAASGRNFGSYAMGWSRQAPGKERELVAGIRSVGSTNYADSVKGRFTISRDNAKNTVYLQMNSLKPEDTAVYYCAARLWHLSYAGQGGDYWGQGTQVTVSS | low polyreactivity |
| QVQLVESGGGLVQAGGSLRLSCAASGRNFHNYAMGWYRQATRKERELVAGISSRGGSTYYADSVKGRFTISRVNAKNTVYLQMNSLKPEVTAVYYCAKDKSPYGYATNQYRKYYYWGQGTQVTVSS | low polyreactivity |
| QVQLVESGGGLVQAGGSLRLSCAASGRNFKQYAMGWYRQAHGKERELVAAISVRGGITYYADSVKGRFTISRDNAKNTVYLQMNSLKPEVTGVYYCAKRSYRTHTYDYWGQGTQVTVSS | low polyreactivity |
| QVQLVESGGGLVQAGGSLRLSCAASGRNFLYNAMGWYRQAPGKERELVAAISGGSTNYADSVKGRFTISRDNAKNTVYLQMHSLKPEDTAVYYCAARYLRRYNWGQGTQVSVSS | high polyreactivity |
| QVQLVESGGGLVQAGGSLRLSCAASGRNFNQYGMGRYIPAPGKERELVAAIRSGDSTNYADSVKGRFTISRDNAKNTVYLQMNSLKPEDTAVYYCARDRPGDYAGYDYWGQGTQVNVSS | low polyreactivity |
| QVQLVESGGGLVQAGGSLRLSCAASGRNFNSYAMGWYRQAPGKERELVAAISWNGGSTYYADSVKGRFTISRDNAKITVYLQMNSLKPEDTAVYYCAATYLLRGDAYYSWGQGTQVTVSS | high polyreactivity |
| QVQLVESGGGLVQAGGSLRLSCAASGRNFPAYAMGWYRQAPGKERELVASIRRGGITYADSVKGRFTISRDNAKNTVYLQMNRLKPEDSSGYFCNADFRGWGYHMDYWGQGTQVTVSS | low polyreactivity |
| QVQLVESGGGLVQAGGSLRLSCAASGRNFPYYAMGWYRQAPGKEMELVAAITRGVRTHYADSVKGRFTISRDNAKNTVYLQMNSLKPEDTAVYYCAREDWGSYSDMDSWGQGTQVTVSS | low polyreactivity |
| QVQLVESGGGLVQAGGSLRLSCAASGRNFPYYAMGWYRQAPGKERELVATISSGGITNYADSVKGRFTISRDNAKNTVYLELNSLKPEDTAVYYCAADRHWSAGLWRYDYWGQGTQVTVSS | high polyreactivity |
| QVQLVESGGGLVQAGGSLRLSCAASGRNFQVYAMGWYRQAPGKERELVAAISFSGDRTYYADSVKGRFTISRDNAKNTVYLQMNSLKPEDTAVYYCSADGFVYDLRARPGWVDYWGQGTQVTVSS | low polyreactivity |
| QVQLVESGGGLVQAGGSLRLSCAASGRNFRSYAMGWYRQAPGKERELVAAIRRGGSTNYADSVKGRFTISRDNAKNTVYLQMNSLNPEDTAVYYCAARGWSYRSVGYMDYWGQGTQVTVSS | high polyreactivity |
| QVQLVESGGGLVQAGGSLRLSCAASGRNFSDYAMGWSRQAPGKERELVATITSGDSTNYADSVKGRFTISRDNAKNTVYLQMNSLKPEDTAVYYCNADRFADYDYWGQGTQVTVSS | low polyreactivity |
| QVQLVESGGGLVQAGGSLRLSCAASGRNFSLYAMGWYRQAPGKERELVAAISWSGGNTYYADSVKGRFTISRDNAKNTVYLQMNSLKPEDTAVYYCNTVSYRGDWNPSKYYYWGQGTQVTLSS | high polyreactivity |
| QVQLVESGGGLVQAGGSLRLSCAASGRNFSWNAMGWYRQAPGKERELVAAISRGASTNYADSVKGRFTISRDNAKNTDYLQMNSLKPEDTAVYYCNAVGPSLIYTYELSPTFDYWGQGTQVTVSS | low polyreactivity |
